This passage reports EC50 results from patent US20150087807A1.

The assay has as its target synthetic mimetic peptide m1E41920. The assay is described as follows: indirect ELISA, m1E41920 peptide coated, nonlinear regression (GraphPad Prism). In general terms: ELISA stands for enzyme-linked immunosorbent assay.

B1: humanized single chain variable fragment of 1E4 (huscFv1E4) (scFv)
scFv: QCLVESGGGVVQPGRSLRLSCAASGFTFSNYRVHWVRQAPGKGLEWIAVIAVKSDNYGANYAESVKGRFTISRDNSKNTLYLQMNSLRAEDTAVYYCRSTVVVMGDYFAMDYWGQGTSVTVSSGGGGSGGGGSGGGGSDIVLTQSPAFLSVTPGEKVTITCRASQNIGTYIHWYQQKPDQAPKLLIKYASESVSGVPSRFSGSGSGTDFTFTISSLEAEDAATYYCQQSNTWPYTFGGGTKLEIKRADAAPTVSKLAAALEHHHHHH
In the case of B1, the EC50 (commonly the concentration that produces a half-maximal response) is 62.3 nM.

B2: recombinant murine single chain variable fragment of 1E4 (muscFv1E4) (scFv)
scFv: ECLEESGGGLVRPGNSLKLSCVTSGFTFSNYRVHWLRQPPGKRLEWIAVIAVKSDNYGANYAESVKGRFTISRDDSKSSVYLQMNRLREEDTATYYCRSTVVVMGDYFAMDYWGQGTSVTVSSGGGGSGGGGSGGGGSDIELTQSPAILSVSPGERVSFSCRASQNIGTYIHWYQQRTNGSPRLLIKYASESVSGIPSRFSGRGSGTDFTLSISSVESEDIADYYCQQSNTWPYTFGGGTKLEIKRADAAPTVSKLAAALEHHHHHH
Take B2: the EC50 was found to be 73.1 nM.
